Data on 28 molecules can be found in patent US20240383984A1 (Genentech, published 2024).

Positions count from the first letter of the chain named. Numbers in names are those of the source.

Assay [1] addresses T1, human FcRH5 protein fragment (soluble) (human, UniProt Q96RD9 16-851).
T1 construct: whole entry named; also called soluble human FcRH5; Human FcRH5 (BIACORE analyte)
T1 sequence: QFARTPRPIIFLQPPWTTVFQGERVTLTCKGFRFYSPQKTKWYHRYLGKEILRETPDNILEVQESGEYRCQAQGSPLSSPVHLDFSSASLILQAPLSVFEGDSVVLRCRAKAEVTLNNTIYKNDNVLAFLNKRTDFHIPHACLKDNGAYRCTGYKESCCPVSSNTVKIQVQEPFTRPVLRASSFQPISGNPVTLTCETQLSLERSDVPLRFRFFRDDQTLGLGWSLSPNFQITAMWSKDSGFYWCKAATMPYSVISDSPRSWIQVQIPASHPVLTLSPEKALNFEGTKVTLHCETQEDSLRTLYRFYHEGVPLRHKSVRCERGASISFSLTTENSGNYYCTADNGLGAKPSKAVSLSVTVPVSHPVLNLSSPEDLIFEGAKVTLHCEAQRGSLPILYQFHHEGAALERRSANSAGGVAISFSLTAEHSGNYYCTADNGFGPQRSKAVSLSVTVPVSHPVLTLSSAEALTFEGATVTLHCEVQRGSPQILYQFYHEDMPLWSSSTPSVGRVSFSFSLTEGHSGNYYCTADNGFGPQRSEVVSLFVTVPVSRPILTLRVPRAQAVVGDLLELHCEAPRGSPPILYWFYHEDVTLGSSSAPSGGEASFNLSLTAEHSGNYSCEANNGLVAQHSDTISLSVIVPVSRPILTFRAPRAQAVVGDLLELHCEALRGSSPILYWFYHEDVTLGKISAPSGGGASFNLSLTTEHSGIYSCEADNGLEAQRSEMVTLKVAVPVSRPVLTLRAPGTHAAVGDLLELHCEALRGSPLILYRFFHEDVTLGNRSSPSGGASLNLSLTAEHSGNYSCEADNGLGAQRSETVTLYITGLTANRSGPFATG
Nature of the assay: BIACORE, human IgG1, soluble human FcRH5. For orientation: Surface plasmon resonance follows binding to a sensor surface in real time, without labels.

The target in assay [2] is T1, human FcRH5 protein fragment (soluble). Description: SPR, hIgG capture, screening. The method, then:
(§1) Briefly, a human IgG capture surface was generated on a Series S CM5 chip using amine coupling and the human IgG capture kit (GE Life Sciences, Piscataway, NJ). Test antibodies were then captured on flow cells 2, 3, or 4, with flow cell 1 used as a reference. An FcRH5 protein fragment was used as the analyte, with a flow rate of […]. Between injections the capture surface was regenerated by a 30-second injection of 3M magnesium chloride or 10 mM glycine, pH 1.5. Interactions were assessed at 25° C. in 10 mM HEPES pH7.4, 150 mM NaCl, and 0.05% Tween 20 (HBSP). Reference data from the reference flow cell and from injection of buffer alone were subtracted prior to kinetic analysis. Kinetic information was calculated by fitting data to a 1:1 binding model. Reference subtraction and data fitting were performed using BIAevaluation software (GE Life Sciences, Piscataway, NJ).
(§2) For affinity screening of HVR-H2 Trp52 and Met64 variants (Table 7), antibodies were expressed by transient transfection of Expi293 cells and purified using tip columns that were custom packed with affinity resin MabSelect SuRe (Glygen Corp., Columbia, MD & GE Life Sciences, Piscataway, NJ). […] Binding of FcRH5 protein fragment to captured antibodies was monitored at 100 nM and 500 nM. Association and dissociation were monitored at a flow rate of 40 μl/min, for 180 s and 300 s, respectively.

For assay [3] the target is unchanged. Nature of the assay: SPR (BIACORE), IgG captured via anti-human IgG, FcRH5 protein fragment as analyte (100 and 500 nM). Here is the method: as §1, §2

B1: 1G7.v1C (antibody, human IgG1, V domains shown)
VH: EVQLVESGPGLVKPSETLSLTCTVSGFPLTRFGVHWVRQPPGKGLEWLGVIWRGGSTDYNAAFMSRLTISKDNSKNQVSLKLSSVTAADTAVYYCSNHYYGSSDYALDNWGQGTLVTVSS
VL: DIQMTQSPSSLSASVGDRVTITCKASQDVSNIVVWFQQKPGKSPKLLIYSASYRYTGVPSRFSGSGSGTDFTLTISSLQPEDFATYYCQQHYSSPYTFGQGTKVEIK
notes: human IgG1 with the light chain of hu1G7.v1; also called C (hu1G7.v1 heavy chain S28P)
In the case of B1, in assay [1], the “Fold improvement over hu1G7.v1” value is 1.1 fold and the affinity, expressed as Kd, was 13.3 nM.

B2: 1G7.v1D (antibody, human IgG1, V domains shown)
VH: B1 VH with P28S, L29T
VL: B1 VL
notes: human IgG1 with the light chain of hu1G7.v1; also called D (hu1G7.v1 heavy chain L29T)
Turning to B2, in assay [1], the “Fold improvement over hu1G7.v1” value was determined as 2.2 fold and binding was put at a Kd of 6.7 nM.

B3: hu1G7.v1 heavy chain W52H with light chain of hu1G7.v1.3 (antibody, V domains shown)
VH: B1 VH with P28S, W52H
VL: B1 VL with S30R, S43A, A51G, T56S, H91Q, S94P
notes: human IgG
Turning to B3, the results for the Kd in assay [2] and in assay [3] were 66 nM and 65.5 nM, respectively.

B4: hu1G7.v1 heavy chain W52Y with light chain of hu1G7.v1.7 (antibody, V domains shown)
VH: B1 VH with P28S, W52Y
VL: B1 VL with S30R, I32L, S43A, A51G, S52Y, S93Q, S94P
notes: human IgG
For the molecule B4, the Kd in assay [2] was 140 nM; in assay [3], 136 nM.

B5: 1G7.v1H (antibody, human IgG1, V domains shown)
VH: B1 VH with P28S, S65D
VL: B1 VL
notes: human IgG1 with the light chain of hu1G7.v1; also called H (hu1G7.v1 heavy chain S65D)
Regarding B5, in assay [1], the “Fold improvement over hu1G7.v1” value worked out at 1 fold and the Kd came to 15 nM.

B6: hu1G7.v1 heavy chain W52Y with light chain of hu1G7.v1.4 (antibody, V domains shown)
VH: B1 VH with P28S, W52Y
VL: B1 VL with S30R, I32L, S43A, A51G, T56S, S94P
notes: human IgG
On to B6, for which the results for the Kd in assay [2] and in assay [3] were 130 nM and 131 nM, respectively.

B7: 1G7.v1G (antibody, human IgG1, V domains shown)
VH: B1 VH with P28S, M64G
VL: B1 VL
notes: human IgG1 with the light chain of hu1G7.v1; also called G (hu1G7.v1 heavy chain M64G)
B7: in assay [1], the “Fold improvement over hu1G7.v1” value amounted to 1 fold and the Kd is 14.4 nM.

B8: hu1G7.v1 heavy chain W52Y with light chain of hu1G7.v1.3 (antibody, V domains shown)
VH: B1 VH with P28S, W52Y
VL: B1 VL with S30R, S43A, A51G, T56S, H91Q, S94P
notes: human IgG
As to B8, the Kd in assay [2] stood at 640 nM; in assay [3], 641 nM.

B9: hu1G7.v1 heavy chain W52Y with light chain of hu1G7.v1.5 (antibody, V domains shown)
VH: B1 VH with P28S, W52Y
VL: B1 VL with A51G, S52Y, H91Q, Y92F, S93Q, S94P
notes: human IgG
As for B9, the Kd in assay [2] is 180 nM; in assay [3] it was 177 nM.

B10: hu1G7.v1 heavy chain W52Y with light chain of hu1G7.v1 (antibody, V domains shown)
VH: B1 VH with P28S, W52Y
VL: B1 VL
notes: human IgG
Regarding B10, the Kd in assay [2] was 150 nM; in assay [3], 146 nM.

B11: hu1G7.v1 heavy chain W52L with light chain of hu1G7.v1.5 (antibody, V domains shown)
VH: B1 VH with P28S, W52L
VL: B1 VL with A51G, S52Y, H91Q, Y92F, S93Q, S94P
notes: human IgG
In the case of B11, the Kd in assay [2] is 130 nM; in assay [3], 125 nM.

B12: hu1G7.v1 heavy chain W52H with light chain of hu1G7.v1.7 (antibody, V domains shown)
VH: B1 VH with P28S, W52H
VL: B1 VL with S30R, I32L, S43A, A51G, S52Y, S93Q, S94P
notes: human IgG
As to B12, the Kd in assay [2] is 90 nM; in assay [3] it was 89.8 nM.

B13: 1G7.v1L (antibody, human IgG1, V domains shown)
VH: B1 VH with P28S, S103P
VL: B1 VL
notes: human IgG1 with the light chain of hu1G7.v1; also called L (hu1G7.v1 heavy chain S100P)
As for B13, in assay [1], the “Fold improvement over hu1G7.v1” value was 3 fold and the affinity, expressed as Kd, was 4.8 nM.

B14: hu1G7.v1 heavy chain W52L with light chain of hu1G7.v1 (antibody, V domains shown)
VH: B1 VH with P28S, W52L
VL: B1 VL
notes: human IgG
For B14, the figures for the dissociation constant (Kd) in assay [2] and in assay [3] were 100 nM and 103 nM, respectively.

B15: hu1G7.v1 heavy chain W52Y with light chain of hu1G7.v1.6 (antibody, V domains shown)
VH: B1 VH with P28S, W52Y
VL: B1 VL with S43A, A51G, S52Y, T56S, H91Q, S93Q, S94P
notes: human IgG
With B15, the Kd was determined as 530 nM in assay [2] and 529 nM in assay [3].

B16: hu1G7.v1 heavy chain W52H with light chain of hu1G7.v1.5 (antibody, V domains shown)
VH: B1 VH with P28S, W52H
VL: B1 VL with A51G, S52Y, H91Q, Y92F, S93Q, S94P
notes: human IgG
Consider B16, for which the Kd worked out at 67 nM in assay [2] and 67.3 nM in assay [3].

B17: hu1G7.v1 heavy chain W52H with light chain of hu1G7.v1.6 (antibody, V domains shown)
VH: B1 VH with P28S, W52H
VL: B1 VL with S43A, A51G, S52Y, T56S, H91Q, S93Q, S94P
notes: human IgG
B17: the Kd in assay [2] is 110 nM; in assay [3], 109 nM.

B18: hu1G7.v1 heavy chain W52H with light chain of hu1G7.v1.4 (antibody, V domains shown)
VH: B1 VH with P28S, W52H
VL: B1 VL with S30R, I32L, S43A, A51G, T56S, S94P
notes: human IgG
On to B18, for which the Kd in assay [2] turned out to be 60 nM; in assay [3] it was 60.4 nM.

B19: 1G7.v1K (antibody, human IgG1, V domains shown)
VH: B1 VH with P28S, S84D
VL: B1 VL
notes: human IgG1 with the light chain of hu1G7.v1; also called K (hu1G7.v1 heavy chain S82bD)
Turning to B19, in assay [1], the “Fold improvement over hu1G7.v1” value was found to be 1 fold and the Kd worked out at 15 nM.

B20: 1G7.v1J (antibody, human IgG1, V domains shown)
VH: B1 VH with P28S, K81M
VL: B1 VL
notes: human IgG1 with the light chain of hu1G7.v1; also called J (hu1G7.v1 heavy chain K81M)
As to B20, in assay [1], the “Fold improvement over hu1G7.v1” value stood at 1 fold and the affinity, expressed as Kd, was 15.3 nM.

B21: hu1G7.v87 (antibody, V domains shown)
VH: B1 VH with P28S, M64V
VL: B1 VL
notes: Human IgG
For B21, the Kd in assay [2] amounted to 27 nM; in assay [3], 27.4 nM.

B22: 1G7.v1I (antibody, human IgG1, V domains shown)
VH: B1 VH with P28S, S65P
VL: B1 VL
notes: human IgG1 with the light chain of hu1G7.v1; also called I (hu1G7.v1 heavy chain S65P)
In the case of B22, in assay [1], the “Fold improvement over hu1G7.v1” value worked out at 0.9 fold and the Kd was found to be 16.2 nM.

B23: 1G7.v1E (antibody, human IgG1, V domains shown)
VH: B1 VH with P28S, V37Y
VL: B1 VL
notes: human IgG1 with the light chain of hu1G7.v1; also called E (hu1G7.v1 heavy chain V37Y)
Take B23: in assay [1], the “Fold improvement over hu1G7.v1” value is 1.3 fold and the Kd amounted to 11 nM.

B24: hu1G7.v1 heavy chain W52L with light chain of hu1G7.v1.7 (antibody, V domains shown)
VH: B1 VH with P28S, W52L
VL: B1 VL with S30R, I32L, S43A, A51G, S52Y, S93Q, S94P
notes: human IgG
For the molecule B24, the Kd in assay [2] worked out at 130 nM; in assay [3] it was 129 nM.

B25: hu1G7.v1 heavy chain W52L with light chain of hu1G7.v1.4 (antibody, V domains shown)
VH: B1 VH with P28S, W52L
VL: B1 VL with S30R, I32L, S43A, A51G, T56S, S94P
notes: human IgG
With B25, the Kd in assay [2] and in assay [3] was 92 nM in each case.

B26: 1G7.v1F (antibody, human IgG1, V domains shown)
VH: B1 VH with P28S, A61P
VL: B1 VL
notes: human IgG1 with the light chain of hu1G7.v1; also called F (hu1G7.v1 heavy chain A61P)
Turning to B26, in assay [1], the “Fold improvement over hu1G7.v1” value was found to be 1.2 fold and binding was put at a Kd of 11.7 nM.

B27: hu1G7.v1 heavy chain W52L with light chain of hu1G7.v1.6 (antibody, V domains shown)
VH: B1 VH with P28S, W52L
VL: B1 VL with S43A, A51G, S52Y, T56S, H91Q, S93Q, S94P
notes: human IgG
For B27, the Kd in assay [2] and in assay [3] was 250 nM throughout.

B28: hu1G7.v1 heavy chain W52L with light chain of hu1G7.v1.3 (antibody, V domains shown)
VH: B1 VH with P28S, W52L
VL: B1 VL with S30R, S43A, A51G, T56S, H91Q, S94P
notes: human IgG
With B28, the Kd is 240 nM in assay [2] and 239 nM in assay [3].

As usually defined, the Kd is the concentration at which binding is half-saturated. High values mean weaker binding, low ones tighter binding.
